Data from PMC3834829, “A signature motif mediating selective interactions of BCL11A with the NR2E/F subfamily of orphan nuclear receptors” (Nucleic Acids Research, 2013).

B1: LexA-NSD1-(790–818) [not stated] / AAD-ERα-LBD-(282–595) [not stated] (parent complex)
chain 1: SSQNHIPIEPDYKFSTLLMMLKDMHDSKT
chain 2: SAGDMRAANLWPSPLMIKRSKKNSLALSLTADQMVSALLDAEPPILYSEYDPTRPFSEASMMGLLTNLADRELVHMINWAKRVPGFVDLTLHDQVHLLECAWLEILMIGLVWRSMEHPGKLLFAPNLLLDRNQGKCVEGMVEIFDMLLATSSRFRMMNLQGEEFVCLKSIILLNSGVYTFLSSTLKSLEEKDHIHRVLDKITDTLIHLMAKAGLTLQQQHQRLAQLLLILSHIRHMSNKGMEHLYSMKCKNVVPLYDLLLEMLDAHRLHAPTSRGGASVEETDQSHLATAGSTSSHSLQKYYITGEAEGFPATV
B2: LexA-BCL11A-(651–670) [not stated] / AAD-COUP-TFI-LBD-(151–467) [not stated] (parent complex)
chain 1: NTENVYSQWLAGYAASRQLK
chain 2: MRREAVQRGRMPPTQPNPGQYALTNGDPLNGHCYLSGYISLLLRAEPYPTSRYGSQCMQPNNIMGIENICELAARLLFSAVEWARNIPFFPDLQITDQVSLLRLTWSELFVLNAAQCSMPLHVAPLLAAAGLHASPMSADRVVAFMDHIRIFQEQVEKLKALHVDSAEYSCLKAIVLFTSDACGLSDAAHIESLQEKSQCALEEYVRSQYPNQPSRFGKLLLRLPSLRTVSSSVIEQLFFVRLVGKTPIETLIRDMLLSGSSFNWPYMSIQCS
B3: LexA-BCL11A-(310–325) [not stated] / AAD-EAR2-LBD-(121–399) [not stated] (parent complex)
chain 1: PPAMDFSRRLRELAGN
chain 2: MRKEAVQRGRIPHSLPGAVAASSGSPPGSALAAVASGGDLFPGQPVSELIAQLLRAEPYPAAAGRFGAGGGAAGAVLGIDNVCELAARLLFSTVEWARHAPFFPELPVADQVALLRLSWSELFVLNAAQAALPLHTAPLLAAAGLHAAPMAAERAVAFMDQVRAFQEQVDKLGRLQVDSAEYGCLKAIALFTPDACGLSDPAHVESLQEKAQVALTEYVRAQYPSQPQRFGRLLLRLPALRAVPASLISQLFFMRLVGKTPIETLIRDMLLSGSTFNWP
B4: LexA-BCL11A-(310–325) [not stated] / AAD-COUP-TFI-LBD-(151–467) [not stated] (parent complex)
chain 1: PPAMDFSRRLRELAGN
chain 2: B2 chain 2

Variants of: B1
Experiment: yeast two-hybrid; + 1µM E2; read off a plot

Q: chain 1 SSQNHIPIEPDYKFSTLAMMLKDMHDSKT [chain 1 L18A] was tested. Which response did it give?
A: ~1800 nmol/mg/min

Q: Which response does the source give for chain 1 SSQNHIPIEPDYKFSTLLAMLKDMHDSKT [chain 1 M19A] here?
A: ~2700 nmol/mg/min

Q: With chain 1 SSQNHIPIEPDYKFSTLLMMAKDMHDSKT [chain 1 L21A] as the variant, how does the response read?
A: ~0 nmol/mg/min

Q: For chain 1 SSQNHIPIEPDYKFSTALMMLKDMHDSKT [chain 1 L17A], which response is on record?
A: ~0 nmol/mg/min

Q: chain 1 SSQNHIPIEPDYKASTLLMMLKDMHDSKT [chain 1 F14A] was tested. Which response did it give?
A: ~2400 nmol/mg/min

Q: For chain 1 SSQNHIPIEPDYKFSTLLMMLADMHDSKT [chain 1 K22A], which response is on record?
A: ~2500 nmol/mg/min

Q: For chain 1 SSQNHIPIEPDYKFSTLLMMLKAMHDSKT [chain 1 D23A], which response is on record?
A: ~1700 nmol/mg/min

Q: For chain 1 SSQNHIPIEPDYKFSTLLMALKDMHDSKT [chain 1 M20A], which response is on record?
A: ~0 nmol/mg/min

Variants of: B2
Experiment: yeast two-hybrid; read off a plot

Q: With chain 1 NTENVYSQWLAGAAASRQLK [chain 1 Y13A] as the variant, how does the response read?
A: ~0 nmol/mg/min

Q: Which response does the source give for chain 1 NTENVYSQALAGYAASRQLK [chain 1 W9A] here?
A: ~0 nmol/mg/min

Q: Which response does the source give for chain 1 NTENVYAQWLAGYAASRQLK [chain 1 S7A] here?
A: ~0 nmol/mg/min

Q: With chain 1 NTENAYSQWLAGYAASRQLK [chain 1 V5A] as the variant, how does the response read?
A: ~220 nmol/mg/min

Q: chain 1 NTENVASQWLAGYAASRQLK [chain 1 Y6A] was tested. Which response did it give?
A: ~50 nmol/mg/min

Q: With chain 1 NTENVYSAWLAGYAASRQLK [chain 1 Q8A] as the variant, how does the response read?
A: ~920 nmol/mg/min

Q: How did the response turn out when chain 1 NTENVYSQWLAAYAASRQLK [chain 1 G12A] was run?
A: ~2300 nmol/mg/min

Q: With chain 1 NTENVYSQWAAGYAASRQLK [chain 1 L10A] as the variant, how does the response read?
A: ~0 nmol/mg/min

Variants of: B3
Experiment: yeast two-hybrid; read off a plot

Q: How did the response turn out when chain 1 PPAMDFSARLRELAGN [chain 1 R8A] was run?
A: ~1000 nmol/mg/min

Q: With chain 1 PPAMDFSRRLAELAGN [chain 1 R11A] as the variant, how does the response read?
A: ~1300 nmol/mg/min

Q: With chain 1 PPAMDFSRRARELAGN [chain 1 L10A] as the variant, how does the response read?
A: ~0 nmol/mg/min

Q: chain 1 PPAMDFSRRLREAAGN [chain 1 L13A] was tested. Which response did it give?
A: ~0 nmol/mg/min

Q: For chain 1 PPAMDFARRLRELAGN [chain 1 S7A], which response is on record?
A: ~160 nmol/mg/min

Variants of: B4
Experiment: yeast two-hybrid; read off a plot

Q: Which response does the source give for chain 1 PPAMDFSARLRELAGN [chain 1 R8A] here?
A: ~900 nmol/mg/min

Q: Which response does the source give for chain 1 PPAMDFARRLRELAGN [chain 1 S7A] here?
A: ~100 nmol/mg/min

Q: chain 1 PPAMDFSRRARELAGN [chain 1 L10A] was tested. Which response did it give?
A: ~0 nmol/mg/min

Q: With chain 1 PPAMDFSRRLAELAGN [chain 1 R11A] as the variant, how does the response read?
A: ~670 nmol/mg/min

Q: chain 1 PPAMDASRRLRELAGN [chain 1 F6A] was tested. Which response did it give?
A: ~0 nmol/mg/min

Q: With chain 1 PPAMDFSRRLREAAGN [chain 1 L13A] as the variant, how does the response read?
A: ~0 nmol/mg/min
